Laboratory results reported in patent publication US20020182701.
Changes are numbered by the printed parent chain. Numbers in names are those of the source.

B1: N-terminal HA-tagged wild-type yeast MetAP2 (protein)
chain: YPYDVPDYAMTDAEIENSPASDLKELNLENEGVEQQDQAKADESDPVESKKKKNKKKKKKKSNVKKIELLFPDGKYPEGAWMDYHQDFNLQRTTDEESRYLKRDLERAEHWNDVRKGAEIHRRVRRAIKDRIVPGMKLMDIADMIENTTRKYTGAENLLAMEDPKSQGIGFPTGLSLNHCAAHFTPNAGDKTVLKYEDVMKVDYGVQVNGNIIDSAFTVSFDPQYDNLLAAVKDATYTGIKEAGIDVRLTDIGEAIQEVMESYEVEINGETYQVKPCRNLCGHSIAPYRIHGGKSVPIVKNGDTTKMEEGEHFAIETFGSTGRGYVTAGGEVSHYARSAEDHQVMPTLDSAKNLLKTIDRNFGTLPFCRRYLDRLGQEKYLFALNNLVRHGLVQDYPPLNDIPGSYTAQFEHTILLHAHKKEVVSKGDDYGKMRFQMASSLGIILL
B2: N-terminal HA-tagged yeast MetAP2 (H174A) (protein)
chain: B1 chain with H183A

Target: T1, Met-Gly-Met-Met peptide substrate
T1 chain: MGMM

Row | Protein | Specific activity (MetAP activity on 2 mM Met-Gly-Met-Met) | catalytic activity in vitro
1 | B1 | Specific activity for the wild-type MetAP2 was 11±0.5 U/mg | –
2 | B2 | – | displayed no detectable activity against a peptide substrate (MGMM)
